Source: US20180185504A1 (Regeneron, published 2018)

Assays:
[1] = biological target: T1, human PRLR on cells (endogenous on T47D, T47D#11, MCF7); introduced in HEK293/hPRLR/STAT5-Luc, 293/hPRLR, … (human, UniProt P16471 25-622); assay: FACS on T47D cells
T1 construct: no tag is stated for these lines; also called prolactin receptor
T1 sequence: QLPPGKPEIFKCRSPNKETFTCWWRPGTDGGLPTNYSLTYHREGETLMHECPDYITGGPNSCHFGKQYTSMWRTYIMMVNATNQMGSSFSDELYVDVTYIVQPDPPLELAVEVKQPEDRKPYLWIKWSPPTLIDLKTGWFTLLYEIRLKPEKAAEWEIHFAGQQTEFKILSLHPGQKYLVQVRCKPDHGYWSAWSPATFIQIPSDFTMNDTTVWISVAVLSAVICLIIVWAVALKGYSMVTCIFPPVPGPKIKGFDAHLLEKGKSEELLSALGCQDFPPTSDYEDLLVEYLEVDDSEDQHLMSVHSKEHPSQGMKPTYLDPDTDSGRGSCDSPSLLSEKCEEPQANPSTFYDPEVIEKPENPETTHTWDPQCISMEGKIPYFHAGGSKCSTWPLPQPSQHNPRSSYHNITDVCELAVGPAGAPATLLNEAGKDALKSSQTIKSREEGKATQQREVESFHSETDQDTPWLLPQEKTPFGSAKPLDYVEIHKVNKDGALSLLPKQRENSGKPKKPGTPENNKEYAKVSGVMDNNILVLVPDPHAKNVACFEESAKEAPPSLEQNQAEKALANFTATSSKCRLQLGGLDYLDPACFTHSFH

[2] = biological target: T2, mouse PRLR construct with an HA tag on HEK293/mPRLR cells (mouse, UniProt Q08501 20-608); assay: FACS on HEK293/mPRLR cells
T2 construct: whole, on cells; stably transfected into HEK293
T2 sequence (looked up): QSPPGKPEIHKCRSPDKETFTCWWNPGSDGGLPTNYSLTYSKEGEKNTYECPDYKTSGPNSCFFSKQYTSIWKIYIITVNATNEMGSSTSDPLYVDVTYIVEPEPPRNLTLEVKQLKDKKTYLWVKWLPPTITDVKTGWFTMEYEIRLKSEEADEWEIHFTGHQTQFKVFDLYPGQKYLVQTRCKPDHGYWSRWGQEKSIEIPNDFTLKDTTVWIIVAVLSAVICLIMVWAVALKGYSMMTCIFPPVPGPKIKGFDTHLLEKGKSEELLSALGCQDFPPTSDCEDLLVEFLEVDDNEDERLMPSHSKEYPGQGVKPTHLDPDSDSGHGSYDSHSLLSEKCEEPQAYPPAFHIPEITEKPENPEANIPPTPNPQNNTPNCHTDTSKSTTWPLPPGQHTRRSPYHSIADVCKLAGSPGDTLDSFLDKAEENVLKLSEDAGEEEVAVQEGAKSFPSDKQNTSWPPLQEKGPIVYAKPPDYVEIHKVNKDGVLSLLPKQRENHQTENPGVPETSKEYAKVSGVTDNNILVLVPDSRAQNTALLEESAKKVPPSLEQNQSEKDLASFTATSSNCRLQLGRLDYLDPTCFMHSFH

[3] = biological target: T3, mfPRLR.mmh (soluble monomeric macaca fascicularis PRLR) (macaca fascicularis); assay: SPR (Biacore), antibody capture, 37 C
T3 construct: soluble monomeric PRLR protein; also called macaca fascicularis (mf) PRLR.mmh; monkey PRLR
T3 chain: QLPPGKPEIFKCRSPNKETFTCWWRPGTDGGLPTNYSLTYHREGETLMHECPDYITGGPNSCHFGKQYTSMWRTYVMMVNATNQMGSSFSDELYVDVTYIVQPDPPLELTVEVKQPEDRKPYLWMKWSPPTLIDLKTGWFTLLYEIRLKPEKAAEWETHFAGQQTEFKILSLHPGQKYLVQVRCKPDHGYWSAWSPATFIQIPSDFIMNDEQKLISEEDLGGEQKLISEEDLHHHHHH
Experimental: (§1) Measurements were conducted on a T200 Biacore instrument. Kinetic association (kₐ) and dissociation (kd) rate constants were determined by processing and fitting the data to a 1:1 binding model using Scrubber 2.0 curve fitting software.

[4] = biological target: T4, hPRLR.mmh (soluble monomeric human PRLR) (human); assay: SPR (Biacore), antibody capture, 37 C
T4 construct: soluble monomeric PRLR protein
T4 chain: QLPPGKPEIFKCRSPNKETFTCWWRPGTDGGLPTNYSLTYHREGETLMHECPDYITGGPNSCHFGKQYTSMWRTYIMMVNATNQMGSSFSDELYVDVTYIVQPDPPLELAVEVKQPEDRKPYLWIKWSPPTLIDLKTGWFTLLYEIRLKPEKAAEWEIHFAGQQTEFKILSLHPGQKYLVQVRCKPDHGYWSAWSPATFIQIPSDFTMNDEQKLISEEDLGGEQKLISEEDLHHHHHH
Experimental: as §1

[5] = biological target: T5, hPRLR.mFc (soluble dimeric human PRLR) (human); assay: SPR (Biacore), antibody capture, 37 C
T5 construct: dimeric PRLR construct
T5 chain: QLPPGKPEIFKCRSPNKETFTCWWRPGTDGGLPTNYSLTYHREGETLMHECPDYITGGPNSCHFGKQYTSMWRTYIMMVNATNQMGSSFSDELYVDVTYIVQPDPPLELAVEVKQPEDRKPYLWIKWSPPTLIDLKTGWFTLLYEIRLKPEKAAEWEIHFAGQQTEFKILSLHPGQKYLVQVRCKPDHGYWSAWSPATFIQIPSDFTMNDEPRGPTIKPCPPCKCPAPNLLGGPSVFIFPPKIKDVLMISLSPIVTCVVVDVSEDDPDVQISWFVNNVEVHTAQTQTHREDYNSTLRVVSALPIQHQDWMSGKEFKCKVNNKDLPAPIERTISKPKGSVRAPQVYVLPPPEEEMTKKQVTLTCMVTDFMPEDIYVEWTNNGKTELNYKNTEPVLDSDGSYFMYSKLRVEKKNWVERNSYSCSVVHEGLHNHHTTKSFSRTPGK
Experimental: as §1

B1: H1H6959N2 (antibody, human IgG1, V domains shown)
VH: EVQLVESGGGLVQPGRSLRLSCAASGFTFDDYAMHWVRQAPGKGLEWVSGISWHSGIIGYADSVKGRFTISRDNAKNSLYLQMNSLRTEDAALYYCAKIGSYFYFDSWGQGTLVTVSS
VL: EIVLTQSPGTLSLSPGERATLSCRASQSVSSNYLAWYQQKPGQAPRLLIYGASSRATGIPDRFSGSGSGTDFTLTISRLEPEDFAVYYCQQFGSSGYTFGQGTNLEIK
notes: also called H2M6959N2
[1]
  FACS Cell Binding (Fold Above Background): 9 fold
[2]
  FACS Cell Binding (Fold Above Background): 2 fold
[3]
  Kd: 370 nM
  T 1/2: 42 s
  koff: 0.0165 s⁻¹
  kon: 44600 M⁻¹ s⁻¹
[4]
  Kd: 681 nM
  T 1/2: 24 s
  koff: 0.0277 s⁻¹
  kon: 40600 M⁻¹ s⁻¹
[5]
  Kd: 4.51 nM
  T 1/2: 300 s
  koff: 0.0023 s⁻¹
  kon: 509000 M⁻¹ s⁻¹
